This note sets out measurements from publication PMC6428754, “Peptidoglycan Remodeling Enables Escherichia coli To Survive Severe Outer Membrane Assembly Defect” (mBio, 2019).

For orientation: Kd means the constant that tells how readily two partners part at equilibrium.

This experiment addresses T1, oligohistidine-tagged PBP1B (E. coli, UniProt P02919 1-844).
T1 construct: PBP1B, bifunctional peptidoglycan synthase (glycosyltransferase and DD-transpeptidase) of Escherichia coli; source: purified
T1 sequence (looked up): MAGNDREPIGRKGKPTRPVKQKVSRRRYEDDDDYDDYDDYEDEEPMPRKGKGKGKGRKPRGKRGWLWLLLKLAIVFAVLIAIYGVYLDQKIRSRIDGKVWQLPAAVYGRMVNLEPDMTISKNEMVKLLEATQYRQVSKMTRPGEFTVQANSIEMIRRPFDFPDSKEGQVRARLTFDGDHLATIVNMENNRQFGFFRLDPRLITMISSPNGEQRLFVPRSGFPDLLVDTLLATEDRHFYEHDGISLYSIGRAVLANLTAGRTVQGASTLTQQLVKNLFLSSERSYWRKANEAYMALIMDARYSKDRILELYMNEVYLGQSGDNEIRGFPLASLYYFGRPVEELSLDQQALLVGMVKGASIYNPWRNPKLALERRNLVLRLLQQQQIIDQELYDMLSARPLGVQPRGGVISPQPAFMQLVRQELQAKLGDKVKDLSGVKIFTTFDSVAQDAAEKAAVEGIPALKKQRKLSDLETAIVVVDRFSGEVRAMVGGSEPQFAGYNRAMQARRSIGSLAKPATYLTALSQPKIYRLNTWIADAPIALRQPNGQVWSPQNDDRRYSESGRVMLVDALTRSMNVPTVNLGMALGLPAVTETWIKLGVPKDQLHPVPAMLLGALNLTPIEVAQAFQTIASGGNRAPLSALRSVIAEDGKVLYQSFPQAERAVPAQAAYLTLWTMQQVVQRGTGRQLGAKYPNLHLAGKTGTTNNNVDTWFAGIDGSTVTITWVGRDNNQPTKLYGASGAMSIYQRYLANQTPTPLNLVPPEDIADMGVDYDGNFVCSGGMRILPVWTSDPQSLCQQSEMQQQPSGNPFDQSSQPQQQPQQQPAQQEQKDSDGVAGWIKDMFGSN
Description: MST; microscale thermophoresis curves; means ± SD from three independent experiments; which partner was labelled is not told (Text S1). Particulars: both partners purified. Background: In MST a laser heats a spot of the sample, and binding alters the fluorescence response.

B1: LdtD (LD-transpeptidase, formerly YcbB), untagged (enzyme, E. coli, UniProt P22525 1-615, looked up)
chain: MLLNMMCGRQLSAISLCLAVTFAPLFNAQADEPEVIPGDSPVAVSEQGEALPQAQATAIMAGIQPLPEGAAEKARTQIESQLPAGYKPVYLNQLQLLYAARDMQPMWENRDAVKAFQQQLAEVAIAGFQPQFNKWVELLTDPGVNGMARDVVLSDAMMGYLHFIANIPVKGTRWLYSSKPYALATPPLSVINQWQLALDKGQLPTFVAGLAPQHPQYAAMHESLLALLCDTKPWPQLTGKATLRPGQWSNDVPALREILQRTGMLDGGPKITLPGDDTPTDAVVSPSAVTVETAETKPMDKQTTSRSKPAPAVRAAYDNELVEAVKRFQAWQGLGADGAIGPATRDWLNVTPAQRAGVLALNIQRLRLLPTELSTGIMVNIPAYSLVYYQNGNQVLDSRVIVGRPDRKTPMMSSALNNVVVNPPWNVPPTLARKDILPKVRNDPGYLESHGYTVMRGWNSREAIDPWQVDWSTITASNLPFRFQQAPGPRNSLGRYKFNMPSSEAIYLHDTPNHNLFKRDTRALSSGCVRVNKASDLANMLLQDAGWNDKRISDALKQGDTRYVNIRQSIPVNLYYLTAFVGADGRTQYRTDIYNYDLPARSSSQIVSKAEQLIR
notes: LdtD (formerly YcbB), LD-transpeptidase of Escherichia coli; Printed as 'untagged LdtD'; source: purified
B1 displayed a Kd of 112 nM.
